Source: paper PMC11388335

Legend:
[1] = molecular target: PP1^Clover (PP1γ catalytic subunit fused to the FRET donor Clover) (human) (UniProt P36873); experiment: FRET or BRET; in vitro subunit exchange: SDS22-PP1^Clover-I3 (160 nM) with p97 (160 nM), p37 (480 nM), ATP (2 mM) and NIPP1^TAMRA (240 nM); p97 buffer + 2% BSA + 1 mM DTT, 30 °C; rise of acceptor/donor ratio
[2] = molecular target: PP1^Clover (PP1γ catalytic subunit fused to the FRET donor Clover) (human) (UniProt P36873); experiment: FRET or BRET; ternary complexes SDS22^TAMRA-PP1^Clover-I3 or SDS22-PP1^Clover-I3^TAMRA (160 nM); FRET while the complex is formed, lost with p97 (160 nM), p37 (480 nM), ATP (2 mM) and unlabeled NIPP1 (240 nM); p97 buffer + 2% BSA + 1 mM DTT, 30 °C
[3] = molecular target: PP1^Clover (PP1γ catalytic subunit fused to the FRET donor Clover) (human) (UniProt P36873); experiment: FRET or BRET; binary complexes SDS22^TAMRA-PP1^Clover (SP) or PP1^Clover-I3^TAMRA (PI) lacking the other subunit, incubated with p97, p37, ATP and NIPP1 as in a3
[4] = molecular target: His-PP1γ^Clover (PP1 of the binary SP and NP complexes) (human) (UniProt P36873); experiment: as above

rate constant of NIPP1 association after p97-p37-mediated release of PP1 (exponential fit of FRET) [1] [min⁻¹] | rate constant of p97-p37-mediated dissociation (exponential fit of FRET) [2] [min⁻¹] | rate constant of p97-p37-mediated dissociation, ternary complex (exponential fit of FRET) [2] [min⁻¹] | rate constant of p97-p37-mediated dissociation, binary complex without SDS22 (exponential fit of FRET) [3] [min⁻¹] | rate constant of dissociation with p97-p37, binary complex without I3 (exponential fit of FRET) [4] [min⁻¹] | Molecule
0.33 | – | – | – | – | NIPP1^TAMRA (His-NIPP1-LPETGGG labeled by sortase with a TAMRA Strep-tag peptide) (from UniProt Q12972 1-351) (natural protein)
– | 0.69 | 0.644 | 0.0734 | – | I3^TAMRA (His-I3-LPETGGG labeled by sortase with a TAMRA Strep-tag peptide) (from UniProt O60927 1-126) (natural protein)
– | 0.64 | 0.714 | – | 0.0003 | SDS22^TAMRA (GGG-SDS22 labeled by sortase with a TAMRA Strep-tag peptide) (natural protein, TAMRA on the ligated peptide (TAMRA)-…) MAAERGAGQQQSQEMMEVDRRVESEESGDEEGKKHSSGIVADLSEQSLKDGEERGEEDPEEEHELPVDMETINLDRDAEDVDLNHYRIGKIEGFEVLKKVKTLCLRQNLIKCIENLEELQSLRELDLYDNQIKKIENLEALTELEILDISFNLLRNIEGVDKLTRLKKLFLVNNKISKIENLSNLHQLQMLELGSNRIRAIENIDTLTNLESLFLGKNKITKLQNLDALTNLTVLSMQSNRLTKIEGLQNLVNLRELYLSHNGIEVIEGLENNNKLTMLDIASNRIKKIENISHLTELQEFWMNDNLLESWSDLDELKGARSLETVYLERNPLQKDPQYRRKVMLALPSVRQIDATFVRF
